Experimental data as given in patent US7410949 (Hoffmann-La Roche, dated 2008).
*1 amine or outer side, *2 acyl side, *3 side chain or, on linkers, in order; H or OH if unused. [ ]: non-standard residue; d: D form. Pqa = N-piperazin-1-yl-4(3H)-quinazolinone-3-acetic acid, O=C(Cn1cnc2ccc(N3CCN([*:1])CC3)cc2c1=O)[*:2]; Dip = N[C@H](C(=O)O)C(c1ccccc1)c1ccccc1; 2Nal = N[C@@H](Cc1ccc2ccccc2c1)C(=O)O; 3Pal = N[C@@H](Cc1cccnc1)C(=O)O; Nle = CCCC[C@H](N)C(=O)O

How the values were obtained:
Y4R = assay: cell-based or functional assay
Y1R = assay: cell-based or functional assay
Y1R, sequence (P25929 whole entry): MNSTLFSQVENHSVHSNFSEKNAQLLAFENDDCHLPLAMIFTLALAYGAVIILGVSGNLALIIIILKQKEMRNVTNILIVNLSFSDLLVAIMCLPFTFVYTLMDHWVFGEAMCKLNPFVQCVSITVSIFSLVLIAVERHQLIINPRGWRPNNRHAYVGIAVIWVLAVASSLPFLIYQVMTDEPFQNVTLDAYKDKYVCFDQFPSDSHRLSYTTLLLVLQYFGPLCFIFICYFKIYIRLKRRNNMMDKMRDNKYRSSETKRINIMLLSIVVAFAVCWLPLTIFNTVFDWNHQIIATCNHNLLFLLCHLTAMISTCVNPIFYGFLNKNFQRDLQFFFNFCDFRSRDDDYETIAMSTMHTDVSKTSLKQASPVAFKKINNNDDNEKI

Row | Binder | Y4R EC50(nM) FLIPR (Y4R) [nM] | Y1R EC50(nM) FLIPR (Y1R) [nM]
1 | IKRHYLNLVTRQRY ((D)Tyr at PYY position 27 (residue 3 of the second part); Pqa moiety between the two parts; C-terminal amide) [H-Ile-Lys-Pqa-Arg-His-(D)Tyr-Leu-Asn-Leu-Val-Thr-Arg-Gln-Arg-Tyr-NH2] | > 5000 | 
2 | IKRHYLNLVTRQRY ((D)Leu at PYY position 28 (residue 4 of the second part); Pqa moiety between the two parts; C-terminal amide) [H-Ile-Lys-Pqa-Arg-His-Tyr-(D)Leu-Asn-Leu-Val-Thr-Arg-Gln-Arg-Tyr-NH2] | > 5000 | 
3 | IKRHYLNLVTRQRY (N-methyl Arg at PYY position 33 (residue 9 of the second part); Pqa moiety between the two parts; C-terminal amide) [H-Ile-Lys-Pqa-Arg-His-Tyr-Leu-Asn-Leu-Val-Thr-(NMe)Arg-Gln-Arg-Tyr-NH2] | > 5000 | > 5000
4 | Ac-I[Nle][Pqa]RH[Dip]LNLVTRQRY-NH2 (SMILES CCCC[C@H](NC(=O)[C@@H](NC(C)=O)[C@@H](C)CC)C(=O)N1CCN(c2ccc3ncn(CC(=O)N[C@@H](CCCNC(=N)N)C(=O)N[C@@H](Cc4c[nH]cn4)C(=O)N[C@H](C(=O)N[C@@H](CC(C)C)C(=O)N[C@@H](CC(N)=O)C(=O)N[C@@H](CC(C)C)C(=O)N[C@H](C(=O)N[C@H](C(=O)N[C@@H](CCCNC(=N)N)C(=O)N[C@@H](CCC(N)=O)C(=O)N[C@@H](CCCNC(=N)N)C(=O)N[C@@H](Cc4ccc(O)cc4)C(N)=O)[C@@H](C)O)C(C)C)C(c4ccccc4)c4ccccc4)c(=O)c3c2)CC1) [Ac-Ile-Nle-Pqa-Arg-His-Dip-Leu-Asn-Leu-Val-Thr-Arg-Gln-Arg-Tyr-NH2] | > 5000 | 
5 | IKRHYLNLVTRQRY ((D)Arg at PYY position 25 (residue 1 of the second part); Pqa moiety between the two parts; C-terminal amide) [H-Ile-Lys-Pqa-(D)Arg-His-Tyr-Leu-Asn-Leu-Val-Thr-Arg-Gln-Arg-Tyr-NH2] | > 5000 | 
6 | Ac-I[Nle][Pqa]RH[2Nal]LNLVTRQRY-NH2 (SMILES CCCC[C@H](NC(=O)[C@@H](NC(C)=O)[C@@H](C)CC)C(=O)N1CCN(c2ccc3ncn(CC(=O)N[C@@H](CCCNC(=N)N)C(=O)N[C@@H](Cc4c[nH]cn4)C(=O)N[C@@H](Cc4ccc5ccccc5c4)C(=O)N[C@@H](CC(C)C)C(=O)N[C@@H](CC(N)=O)C(=O)N[C@@H](CC(C)C)C(=O)N[C@H](C(=O)N[C@H](C(=O)N[C@@H](CCCNC(=N)N)C(=O)N[C@@H](CCC(N)=O)C(=O)N[C@@H](CCCNC(=N)N)C(=O)N[C@@H](Cc4ccc(O)cc4)C(N)=O)[C@@H](C)O)C(C)C)c(=O)c3c2)CC1) [Ac-Ile-Nle-Pqa-Arg-His-(2)Nal-Leu-Asn-Leu-Val-Thr-Arg-Gln-Arg-Tyr-NH2] | > 5000 | 
7 | IKRHYLNLVTRQRY ((D)Tyr at PYY position 36 (residue 12 of the second part); Pqa moiety between the two parts; C-terminal amide) [H-Ile-Lys-Pqa-Arg-His-Tyr-Leu-Asn-Leu-Val-Thr-Arg-Gln-Arg-(D)Tyr-NH2] | > 5000 | 
8 | IKRHYLNLVTRQRY (N-methyl Val at PYY position 31 (residue 7 of the second part); Pqa moiety between the two parts; C-terminal amide) [H-Ile-Lys-Pqa-Arg-His-Tyr-Leu-Asn-Leu-(NMe)Val-Thr-Arg-Gln-Arg-Tyr-NH2] | > 5000 | > 5000
9 | IKRHYLNLVTRQRY (N-methyl Ile at PYY position 3 (residue 1 of the first part); Pqa moiety between the two parts; C-terminal amide) [H-NMeIle-Lys-Pqa-Arg-His-Tyr-Leu-Asn-Leu-Val-Thr-Arg-Gln-Arg-Tyr-NH2] | > 5000 | 
10 | IKRHYLNLVTRQRY ((D)Asn at PYY position 29 (residue 5 of the second part); Pqa moiety between the two parts; C-terminal amide) [H-Ile-Lys-Pqa-Arg-His-Tyr-Leu-(D))Asn-Leu-Val-Thr-Arg-Gln-Arg-Tyr-NH2] | > 5000 | 
11 | Ac-I[Nle][Pqa]R[3Pal]YLNLVTRQRY-NH2 (SMILES CCCC[C@H](NC(=O)[C@@H](NC(C)=O)[C@@H](C)CC)C(=O)N1CCN(c2ccc3ncn(CC(=O)N[C@@H](CCCNC(=N)N)C(=O)N[C@@H](Cc4cccnc4)C(=O)N[C@@H](Cc4ccc(O)cc4)C(=O)N[C@@H](CC(C)C)C(=O)N[C@@H](CC(N)=O)C(=O)N[C@@H](CC(C)C)C(=O)N[C@H](C(=O)N[C@H](C(=O)N[C@@H](CCCNC(=N)N)C(=O)N[C@@H](CCC(N)=O)C(=O)N[C@@H](CCCNC(=N)N)C(=O)N[C@@H](Cc4ccc(O)cc4)C(N)=O)[C@@H](C)O)C(C)C)c(=O)c3c2)CC1) [Ac-Ile-Nle-Pqa-Arg-(3-Pal)-Tyr-Leu-Asn-Leu-Val-Thr-Arg-Gln-Arg-Tyr-NH2] | > 5000 | 
12 | Ac-I[Nle][Pqa]FHYLNLVTRQRY-NH2 (SMILES CCCC[C@H](NC(=O)[C@@H](NC(C)=O)[C@@H](C)CC)C(=O)N1CCN(c2ccc3ncn(CC(=O)N[C@@H](Cc4ccccc4)C(=O)N[C@@H](Cc4c[nH]cn4)C(=O)N[C@@H](Cc4ccc(O)cc4)C(=O)N[C@@H](CC(C)C)C(=O)N[C@@H](CC(N)=O)C(=O)N[C@@H](CC(C)C)C(=O)N[C@H](C(=O)N[C@H](C(=O)N[C@@H](CCCNC(=N)N)C(=O)N[C@@H](CCC(N)=O)C(=O)N[C@@H](CCCNC(=N)N)C(=O)N[C@@H](Cc4ccc(O)cc4)C(N)=O)[C@@H](C)O)C(C)C)c(=O)c3c2)CC1) [Ac-Ile-Nle-Pqa-Phe-His-Tyr-Leu-Asn-Leu-Val-Thr-Arg-Gln-Arg-Tyr-NH2] | > 5000 | > 5000
13 | IKRHYLNLVTRQRY (N-methyl Lys at PYY position 4 (residue 2 of the first part); Pqa moiety between the two parts; C-terminal amide) [H-Ile-NMeLys-Pqa-Arg-His-Tyr-Leu-Asn-Leu-Val-Thr-Arg-Gln-Arg-Tyr-NH2] | > 5000 | 
14 | IKRHYLNLVTRQRY ((D)Lys at PYY position 4 (residue 2 of the first part); Pqa moiety between the two parts; C-terminal amide) [H-Ile-(D)Lys-Pqa-Arg-His-Tyr-Leu-Asn-Leu-Val-Thr-Arg-Gln-Arg-Tyr-NH2] | > 5000 | > 5000
